The target of assay [1] is T1, Human CD93 recombinant protein (Sino Biological Inc, Catalog #12589-H08H) (human, UniProt Q9NPY3 22-580).
T1 construct: Biotinylated (EZ-LINK NHS-PEG4 biotin) in the BLI assays; also called hCD93; His-tagged human CD93
T1 sequence (looked up): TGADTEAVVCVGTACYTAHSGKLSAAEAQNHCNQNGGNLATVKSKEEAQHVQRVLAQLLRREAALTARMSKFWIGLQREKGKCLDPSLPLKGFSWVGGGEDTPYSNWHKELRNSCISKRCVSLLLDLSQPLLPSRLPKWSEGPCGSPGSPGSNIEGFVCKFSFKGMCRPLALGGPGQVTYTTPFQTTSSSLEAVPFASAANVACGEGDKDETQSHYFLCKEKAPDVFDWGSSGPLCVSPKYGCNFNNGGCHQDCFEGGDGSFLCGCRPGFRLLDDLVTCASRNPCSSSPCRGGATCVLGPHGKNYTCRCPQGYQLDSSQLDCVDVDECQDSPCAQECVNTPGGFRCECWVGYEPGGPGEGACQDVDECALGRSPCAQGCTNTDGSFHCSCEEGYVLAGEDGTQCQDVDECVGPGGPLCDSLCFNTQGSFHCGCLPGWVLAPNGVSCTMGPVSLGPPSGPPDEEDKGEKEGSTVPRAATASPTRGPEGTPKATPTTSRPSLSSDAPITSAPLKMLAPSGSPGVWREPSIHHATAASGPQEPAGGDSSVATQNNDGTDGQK
Description: ELISA, antigen coated at 1 µg/mL. As for the experimental part: (§1) His-tagged human CD93, cyno CD93, human VEGFA, and mouse VEGFA were coated onto a 96 well plate at 1 μg/mL in 1× PBS overnight at 4′C. The plate was washed with ELISA wash buffer (Boston BioProduct, Inc.) and the wells were blocked with 3% BSA/PBS ELISA blocking buffer for 1 hour at 37′C. […] The plate was washed with ELISA wash Buffer. HRP conjugated Anti-human Fc was added and incubated for one hour at 37° C. The plate was washed with ELISA wash buffer and read in a microplate reader at 405 nm.

For assay [2], the target named is T2, Human CD93 on cells (human CD93 expressing CHO cells; HUVEC, U937 and KG1a cells) (human, UniProt Q9NPY3 22-652).
T2 construct: whole, on cells; also called hCD93 expressing CHO cells; hCD93 CHO cells
T2 sequence (looked up): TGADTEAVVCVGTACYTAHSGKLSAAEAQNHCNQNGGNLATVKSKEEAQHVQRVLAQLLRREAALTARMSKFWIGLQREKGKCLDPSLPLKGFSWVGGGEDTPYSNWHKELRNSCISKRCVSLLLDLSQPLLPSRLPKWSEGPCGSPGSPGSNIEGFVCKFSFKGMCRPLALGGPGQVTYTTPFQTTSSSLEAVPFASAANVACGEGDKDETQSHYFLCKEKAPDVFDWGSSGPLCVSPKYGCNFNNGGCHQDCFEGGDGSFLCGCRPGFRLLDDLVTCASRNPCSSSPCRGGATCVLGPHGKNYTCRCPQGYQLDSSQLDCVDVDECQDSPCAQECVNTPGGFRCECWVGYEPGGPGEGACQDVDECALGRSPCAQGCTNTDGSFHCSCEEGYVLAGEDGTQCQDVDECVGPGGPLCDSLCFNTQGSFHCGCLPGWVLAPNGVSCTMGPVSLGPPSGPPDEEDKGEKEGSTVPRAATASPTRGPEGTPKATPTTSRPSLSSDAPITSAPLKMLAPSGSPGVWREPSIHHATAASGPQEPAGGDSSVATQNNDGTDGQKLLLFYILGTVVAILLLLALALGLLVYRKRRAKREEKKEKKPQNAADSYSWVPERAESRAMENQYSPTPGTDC
Description: flow cytometry on human CD93 expressing CHO cells (10 µg/ml by the text). In general terms: In flow cytometry, cells or beads pass a laser one at a time.

Assay [3] addresses T3, rh VEGFA (recombinant human VEGFA) (human, UniProt P15692-4 27-191, limits assumed). Description: ELISA, antigen coated at 1 µg/mL. As for the experimental part: as §1
Assay [4] deals with T1, Human CD93 recombinant protein (Sino …). The assay can be described thus: ELISA, hCD93-His coated, OD450. As for the experimental part:
His-tagged human CD93 was coated onto a 96 well plate at 1 μg/mL in 1×PBS overnight at 4° C. The plate was washed with ELISA wash buffer (Boston BioProduct, Inc.) and the wells were blocked with ELISA blocking buffer for 1 hour at 37° C. Purified antibodies were serially diluted in ELISA blocking buffer (Boston BioProduct, Inc.) and incubated on the receptor for 1 hour at 37° C. The plate was washed with ELISA wash Buffer. […] The plate was washed with ELISA wash buffer. HRP substrate was added for indirect detection of the antibodies binding to CD93.
(In general: In an ELISA, binding on a coated surface is turned into a signal by an enzyme label.)

Assay [5] shares this target. Description: summary table, column ELISA (hCD93).
The target is the same in assay [6]. Description: summary table, column Octet (hCD93). Background: In BLI a coated tip is dipped into the sample, and binding shifts an interference pattern.
The target of assay [7] is T2, Human CD93 on cells (human CD93 …). Description: flow cytometry on human CD93 expressing CHO cells. Here is the method:
Human CD93 expressing CHO cells were detached by incubation with TrypLE reagents (Thermo Fisher), which preserves the integrity of CD93 on the cell surface. Then the cells were incubated with serially diluted anti-CD93 antibodies for 30 minutes in 4° C. After washing by FACS buffer, the cells were incubated with Alexa Fluor 647 conjugated anti-human IgG (Jackson ImmunoResearch) for 30 minutes in 4° C. After washing by FACS buffer twice, the samples were acquired in NovoCyte Flow Cytometer and analyzed by NovoExpress software.

Assay [8] concerns the target T1, Human CD93 recombinant protein (Sino …). Description: ELISA, His-tagged human CD93 coated, OD450. Here is the method:
His-tagged human CD93 was coated onto a 96 well plate at 1 μg/mL in 1×PBS overnight at 4° C. The plate was washed with ELISA wash buffer (Boston BioProduct, Inc.) and the wells were blocked with ELISA blocking buffer for 1 hour at 37° C. […] The plate was washed with ELISA wash Buffer. HRP-conjugated anti-human Fc antibody was incubated for 1 hour at 37° C. The plate was washed with ELISA wash Buffer. HRP substrate was added for indirect detection of the antibodies binding to CD93.

Assay [9] shares this target. Description: BLI (Octet QKe), biotinylated human CD93 on streptavidin biosensors. Here is the method:
The binding affinity of anti-CD93 antibodies was determined with bio-layer interferometry using Octet QKe (Fortebio). […] Human CD93 recombinant protein (Sino Biological Inc, Catalog #12589-H08H) was biotinylated using EZ-LINK NHS-PEG4 biotin (Thermo Fisher Scientific). Streptavidin biosensors (Fortebio) were used to load biotinylated CD93 protein (300 seconds in 5 μg/ml). Baseline was stabilized for 60 seconds in 1×kinetics buffer (Fortebio) before anti-CD93 antibodies, at a serial dilution, were allowed to associate for 300 seconds with captured protein. Then the sensors were dissociated in 1× kinetics buffer for 600 seconds. […] (FIG. 41).

The target in assay [10] is T4, rm VEGFA (recombinant mouse VEGFA) (mouse, UniProt Q00731-2 27-190, limits assumed).
T4 sequence (looked up): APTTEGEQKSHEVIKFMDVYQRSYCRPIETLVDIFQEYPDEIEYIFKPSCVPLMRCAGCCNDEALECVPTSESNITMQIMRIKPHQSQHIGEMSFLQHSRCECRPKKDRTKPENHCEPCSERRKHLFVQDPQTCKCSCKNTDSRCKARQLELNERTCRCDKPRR
The assay can be described thus: ELISA, mVEGFA coated at 1 µg/mL, anti-human Fc HRP; single bars, concentration not given. As for the experimental part:
as §1

For assay [11], the target named is T3, rh VEGFA (recombinant human VEGFA). Description: BLI (Octet QKe), biotinylated rh VEGFA on streptavidin sensors. As for the experimental part: (§2) The rh VEGFA was made in-house and biotinylated using EZ-LINK NHS-PEG4 biotin (Thermo Fisher Scientific). Streptavidin biosensors (Fortebio) were used to load biotinylated rh VEGFA protein (300 seconds in 5 μg/ml). […] Then the sensors were dissociated in 1× kinetics buffer for 600 seconds.

For assay [12] the target is unchanged. The assay can be described thus: BLI (Octet), biotinylated rh VEGFA on streptavidin biosensors, sample in serial dilution. As for the experimental part: as §2

The values that follow come from patent US20230365705A1 (DYNAMICURE BIOTECHNOLOGY, published 2023).

B1: chimeric 7F3/VEGFRFc (chimeric 7F3-Aflibercept) (bispecific antibody, human IgG1, kappa)
heavy: not shown
light: ENVLTQSPAIMSASPGEKVTMTCRASSSVSSSYLHWYQQKSGASPKLWIYSTSNLAFGVPARFSGSGSGTSYSLTISSVEAEDAATYYCQQYSGYPLTFGSGTKLEIKRTVAAPSVFIFPPSDEQLKSGTASVVCLLNNFYPREAKVQWKVDNALQSGNSQESVTEQDSKDSTYSLSSTLTLSKADYEKHKVYACEVTHQGLSSPVTKSFNRGEC
notes: also called chimeric 7F3/VEGFR construct
Turning to B1, the binding result in assay [1] and in assay [2] was “binds” in each case.

B2: 7F3-hIgG1 (recombinant chimeric 7F3) (antibody, V domains shown)
VH: QVQLQQSGADLVRPGASVKLSCKASGYTFTDYEMHWVKQTPVYGLEWIGGIDPETGDTAYNQNFKGKATLTADKSSSAAYMELRSLTSEDSAVYYCTNYGNLYYYAMDYWGQGTSVTVSS
VL: ENVLTQSPAIMSASPGEKVTMTCRASSSVSSSYLHWYQQKSGASPKLWIYSTSNLAFGVPARFSGSGSGTSYSLTISSVEAEDAATYYCQQYSGYPLTFGSGTKLEIK
notes: also called chimeric 7F3-hIgG1; recombinant 7F3
For orientation: EC50 means the concentration needed to bring the measured effect to its halfway point. By Kd is commonly meant the constant that tells how readily two partners part at equilibrium. What is called koff is a measure of how fast the partners let go of each other. The kon is the rate constant with which the complex forms. As for B2, the binding result in [3] and in assay [10] was “no binding” each time. Further, the EC50 in assay [4] was 0.02 nM; in assay [5] it was 0.041 nM; in assay [7], 0.4 nM; in assay [8] it was 0.041 nM. Besides, the Kd in assay [6] and in [9] was 0.588 nM throughout. In assay [9], the koff stood at 0.000335 s⁻¹. For the same molecule, the kon in assay [9] was 570000 M⁻¹ s⁻¹.

B3: humanized 7F3/VEGFRFc (h7F3/VEGFRFc) (bispecific antibody, human IgG1, kappa)
heavy: not shown
light: EIVLTQSPSSLSASVGDRVTITCRASSSVSSSYLHWYQQKPGKAPKLLIYSTSNLAFGVPSRFSGSGSGTSYTFTISSLQPEDIATYYCQQYSGYPLTFGSGTKLEIKRTVAAPSVFIFPPSDEQLKSGTASVVCLLNNFYPREAKVQWKVDNALQSGNSQESVTEQDSKDSTYSLSSTLTLSKADYEKHKVYACEVTHQGLSSPVTKSFNRGEC
notes: Full-length human IgG1 with VEGF-trap on the C-terminus of both heavy chains; also called humanized 7F3-Aflibercept; h7F3-VEGF trap
For B3, in [11], the Kd was 2 nM. Also, in [12], the Kd amounted to 2.01 nM, the koff was 0.000121 s⁻¹ and the kon is 60300 M⁻¹ s⁻¹.
